Experiments:
[1] = molecular target: human CD40 on cells (CD19+ cells of PBMC; monocyte-derived dendritic cells) (human, UniProt P25942 21-277); test: cell-based or functional assay
[2] = molecular target: T1, Human CD40 Fc chimera (R&D Systems #1493-CDB) (human, UniProt P25942 21-193); test: SPR, captured IgG2, SCK, 1:1 model; apparent KD (appKD), dimeric antigen
T1 construct: also called hCD40-Fc

[3] = molecular target: T2, Cynomolgus CD40 Fc chimera (R&D Systems #9660-CD) (cynomolgus, UniProt G7PG38 21-193); test: as above
T2 construct: range 21-193; also called cCD40-Fc
T2 sequence (G7PG38 entry or part of it mutant): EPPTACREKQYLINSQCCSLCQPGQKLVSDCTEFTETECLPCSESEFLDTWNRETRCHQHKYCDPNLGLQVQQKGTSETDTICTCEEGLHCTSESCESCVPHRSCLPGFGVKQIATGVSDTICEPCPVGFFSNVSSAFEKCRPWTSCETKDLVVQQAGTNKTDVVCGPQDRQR

[4] = molecular target: T3, Biotinylated human CD40 (AcroBiosystems #CD0-H82E8) (human, UniProt P25942 21-193); test: SPR, captured IgG2, SCK, 1:1 model
T3 construct: also called hCD40-avi; Human CD40-avi; not shown: C-terminal Avi-tag
T3 sequence (P25942 21-193): as the sequence (G7PG38 entry or part of it mutant) above, with S43G, R56H, Q70R, L89W, S95A, P101L, L106S, R142H, Q172L counted along it

[5] = molecular target: T1, Human CD40 Fc chimera (R&D Systems …); test: SPR, captured IgG2, SCK, 1:1 model, dimeric antigen
[6] = molecular target: T2, Cynomolgus CD40 Fc chimera (R&D Systems …); test: as above
[7] = molecular target: T4, Mouse CD40 (AcroBiosystems #TN5-M52H8) (mouse, UniProt P27512 24-193); test: SPR, captured IgG2, single injection of mCD40
T4 construct: range 24-193; also called mCD40
T4 sequence (P27512 24-193 limits assumed): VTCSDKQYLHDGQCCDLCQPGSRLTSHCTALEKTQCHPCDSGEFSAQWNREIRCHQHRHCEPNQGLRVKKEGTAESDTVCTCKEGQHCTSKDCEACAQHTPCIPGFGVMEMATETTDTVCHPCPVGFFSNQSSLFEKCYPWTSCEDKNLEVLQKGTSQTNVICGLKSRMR

[8] = molecular target: T5, caCD40-Fc (Sino Biological #70105-D02H) (canine, UniProt Q7YRL5 21-194); test: SPR, captured IgG2, caCD40-Fc 0.16-100 nM, SCK
T5 construct: also called Canine CD40-Fc; canine CD40; not shown: Fc part of the bought fusion
T5 sequence (looked up): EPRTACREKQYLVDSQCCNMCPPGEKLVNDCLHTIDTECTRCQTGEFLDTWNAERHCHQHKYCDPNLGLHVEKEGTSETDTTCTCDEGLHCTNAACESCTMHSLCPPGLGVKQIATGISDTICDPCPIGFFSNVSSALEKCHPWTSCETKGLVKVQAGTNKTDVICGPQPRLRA

T1 sequence (P25942 21-193, stated change not applied): as the sequence (G7PG38 entry or part of it mutant) above, with S43G, R56H, Q70R, L89W, S95A, P101L, L106S, R142H, Q172L counted along it
Sequence of human CD40 on cells (CD19+ cells of PBMC; monocyte-derived dendritic cells) (P25942 21-277 limits assumed): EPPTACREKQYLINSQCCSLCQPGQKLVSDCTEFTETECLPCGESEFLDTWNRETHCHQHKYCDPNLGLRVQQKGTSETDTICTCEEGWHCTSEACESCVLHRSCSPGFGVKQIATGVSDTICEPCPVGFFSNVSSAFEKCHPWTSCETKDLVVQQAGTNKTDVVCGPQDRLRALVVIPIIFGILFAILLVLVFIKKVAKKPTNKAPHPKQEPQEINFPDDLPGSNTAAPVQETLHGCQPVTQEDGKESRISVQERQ

B1: X-SM083-bi-23 (bispecific antibody, human IgG2, kappa)
heavy: EVQLLESGGGLVQPGGSLRLSCAASGFTFSSYAMSWVRQAPGKGLEWVSGISGYSGSTYYADSVKGRFTISRDNSKNTLYLQMNSLRAEDTAVYYCARYYSYYGYYYFDYWGQGTLVTVSSASTKGPSVFPLAPCSRSTSESTAALGCLVKDYFPEPVTVSWNSGALTSGVHTFPAVLQSSGLYSLSSVVTVPSSNFGTQTYTCNVDHKPSNTKVDKTVERKCCVECPPCPAPPVAGPSVFLFPPKPKDTLMISRTPEVTCVVVDVSHEDPEVQFNWYVDGVEVHNAKTKPREEQFNSTFRVVSVLTVVHQDWLNGKEYKCKVSNKGLPAPIEKTISKTKGQPREPQVYTLPPSREEMTKNQVSLTCLVKGFYPSDIAVEWESNGQPENNYKTTPPMLDSDGSFFLYSKLTVDKSRWQQGNVFSCSVMHEALHNHYTQKSLSLSPGKGGGGSGGGGSEVQLLESGGGLVQPGGSLRLSCAASGFTFSNYWMSWVRQAPGKGLEWVSGISGNGGYTYFADSVKDRFTISRDNSKNTLYLQMNSLRAEDTAVYYCAGGDGSGWSFWGQGTLVTVSSGGGGSGGGGSGGGGSGGGGSQSVLTQPPSASGTPGQRVTISCTGSSSNIGAGYDVHWYQQLPGTAPKLLIYGNNNRPSGVPDRFSGSKSGTSASLAISGLRSEDEADYYCAAWDDSLSGRVFGGGTKLTVL
light: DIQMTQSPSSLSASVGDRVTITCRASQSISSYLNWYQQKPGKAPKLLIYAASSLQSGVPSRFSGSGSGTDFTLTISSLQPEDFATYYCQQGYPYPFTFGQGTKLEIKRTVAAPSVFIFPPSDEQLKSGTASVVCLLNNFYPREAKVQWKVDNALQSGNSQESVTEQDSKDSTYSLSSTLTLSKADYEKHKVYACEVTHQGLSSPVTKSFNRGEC
agonistic activity relative to the parental antibody SP9 (A9) (IL-12 production by MoDCs) [1]: 92%

B2: Y-SM083-A9 (antibody, human IgG2, kappa, V domains shown)
VH: EVQLLESGGGLVQPGGSLRLSCAASGFTFSSYAMSWVRQAPGKGLEWVSGISGYSGSTYYADSVKGRFTISRDNSKNTLYLQMNSLRAEDTAVYYCARYYSYYGYYYFDYWGQGTLVTVSS
VL: DIQMTQSPSSLSASVGDRVTITCRASQSISSYLNWYQQKPGKAPKLLIYAASSLQSGVPSRFSGSGSGTDFTLTISSLQPEDFATYYCQQGYPYPFTFGQGTKLEIKR
notes: also called A9 antibody; SP9
Kd [2]: 5.1 nM | Kd [3]: 4.5 nM | Kd [4]: 37 nM | koff [4]: 0.0061 s⁻¹ | kon [4]: 170000 M⁻¹ s⁻¹ | koff [5]: 0.0016 s⁻¹ | kon [5]: 310000 M⁻¹ s⁻¹ | koff [6]: 0.0022 s⁻¹ | kon [6]: 500000 M⁻¹ s⁻¹ | binding result [7]: no binding (tested: 80 nM) | binding result [8]: no binding (tested: 100 nM)

B3: Y-SM083-B8 (antibody, V domains shown)
VH: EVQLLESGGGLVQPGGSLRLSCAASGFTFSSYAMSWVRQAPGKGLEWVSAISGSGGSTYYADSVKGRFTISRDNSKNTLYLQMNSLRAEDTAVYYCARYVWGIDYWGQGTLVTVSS
VL: DIQMTQSPSSLSASVGDRVTITCRASQSISSYLNWYQQKPGKAPKLLIYAASSLQSGVPSRFSGSGSGTDFTLTISSLQPEDFATYYCQQGYGYPPFTFGQGTKLEIK
Kd [2]: 13 nM | Kd [3]: 13 nM | Kd [4]: 15 nM | koff [5]: 0.0015 s⁻¹ | kon [5]: 120000 M⁻¹ s⁻¹ | binding result [7]: no binding (tested: 80 nM)

Reference: US20230167185A1 (STRIKE PHARMA, published 2023)
